Consider ten molecules from patent US11332546B2, “Protease inhibitory antibodies and methods of use thereof” (The Regents of The University of California, priority 2019, dated 2022).

One assay has as its target T1, cdMMP-12 wt (Homo sapiens, UniProt P39900).
T1 construct: hexahistidine (C); made in house; host or cells: E. coli BL21 (pET32b, cytoplasmic)
Kind of assay: Fibronectin proteolysis inhibition, cdMMP-12 wt (western blot). Type of assay: biochemical. The conditions noted are these: 2 μM GM6001; 350 nM wt cdMMP-12, 200 nM fibronectin, 37° C. The method, then:
Inhibition tests with macromolecular substrates 10 μg/mL FITC-conjugated elastin (AnaSpec) was incubated with 7 nM cdMMP-12 D4/wt and 2-2000 nM purified Fab in 50 mM Tris-HCl, 150 mM NaCl, 5 mM CaCl2), 100 μM ZnCl2 pH 7.5. Generated fluorescent signals were measured at 12 h with λEx of 490 nm and λEm of 520 nm. […] The samples were separated on 5% non-reducing SDS-PAGE and analyzed by western blotting with anti-Fibronectin antibody (Abcam) and chemiluminescent substrate (Thermo Scientific). […] Assays without cdMMP-12s or Fabs were performed as controls.

Another assay relates to cdMMP-9. Kind of assay: FRET inhibition selectivity test, cdMMP-9 (Example 1). The class given is biochemical. Conditions: Fab at 500 nM.
Assay [1] addresses T2, BACE1 (Homo sapiens, UniProt P56817).
T2 construct: human β-secretase 1 (BACE1, residue 46-457); made in house; host or cells: HEK293F (secreted, protein A purified)
Nature of the assay: Binding kinetics by biolayer interferometry, Fabs/IgGs on BACE1. Conditions: for Kd: Fab, read-out: Binding Affinity KD; for Binding Affinity KD (associated IgG, in parentheses): IgG format.
Procedure: Binding kinetics of produced antibodies towards associated protease targets were analyzed by using biolayer interferometry (ForteBio). For Fabs, biotinylated proteases were immobilized on streptavidin biosensors, and Fab binding to the sensors in absence of protease was monitored as backgrounds. For IgGs, protein A sensors were used and protease bindings without IgG were checked as backgrounds. kon and koff were determined for KD calculations. […] Fab in vitro stability was tested by incubating 1 μM Fab with 1 μM of the respective protease in the assay buffer for 12 hours and the samples were analyzed by SDS-PAGE.

Assay [2] deals with T2, BACE1. Kind of assay: FRET peptide inhibition assay, BACE1 (M-2420). The class given is biochemical. Conditions: BACE-1, FRET peptide; for Ki: Fab, read-out: Inhibition Potency KI; for Inhibition Potency KI (associated IgG, in parentheses): IgG format.
Procedure: (§1) For inhibition tests, 1 μM Fabs were 2-fold serially diluted into protease specific assay buffer and incubated with 1-10 nM proteases for 30 min at room temperature. […] Inhibition percentages at given concentrations were calculated by comparing the initial reaction rates in the presence or absence of inhibitor. IC50 was determined as the concentration that achieved 50% inhibition, and KI values were calculated using KI=IC50/(S/Km+1). Vmax and Km at various Fab concentrations were measured to determine the inhibition type. FRET inhibition assays were also used for selectivity tests of isolated Fabs with the relevant proteases.

T2 sequence (P56817 46-457): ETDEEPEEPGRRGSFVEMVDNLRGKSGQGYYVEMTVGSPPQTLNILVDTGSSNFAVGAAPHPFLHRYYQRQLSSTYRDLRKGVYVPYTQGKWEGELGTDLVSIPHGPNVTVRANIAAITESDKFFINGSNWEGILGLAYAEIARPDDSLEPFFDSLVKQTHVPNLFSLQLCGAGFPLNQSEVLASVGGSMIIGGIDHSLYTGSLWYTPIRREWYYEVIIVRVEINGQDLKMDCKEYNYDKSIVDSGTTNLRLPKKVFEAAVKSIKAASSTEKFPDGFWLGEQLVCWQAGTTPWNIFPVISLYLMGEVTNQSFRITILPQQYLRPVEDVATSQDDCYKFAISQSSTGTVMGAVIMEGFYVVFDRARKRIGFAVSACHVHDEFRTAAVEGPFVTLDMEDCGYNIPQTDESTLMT
T1 sequence (P39900 106-263): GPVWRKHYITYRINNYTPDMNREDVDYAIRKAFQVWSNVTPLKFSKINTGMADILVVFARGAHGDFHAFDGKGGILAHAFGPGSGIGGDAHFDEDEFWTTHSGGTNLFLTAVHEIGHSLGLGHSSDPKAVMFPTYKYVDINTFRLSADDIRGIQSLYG
Procedure for cdMMP-9: as §1

As for `CNC(=O)[C@H](Cc1c[nH]c2ccccc12)NC(=O)[C@@H](CC(=O)NO)CC(C)C` [GM6001, reference compound], the “Fibronectin remaining after cdMMP-12 wt hydrolysis” value on cdMMP-12 wt is listed as “significant amounts of fibronectin remained”.

B1: Fab 2B12: anti-MMP-14 antibody clone; VL SEQ ID NO:90, VH SEQ ID NO:5, CDR-H3 SEQ ID NO:8 (antibody, V domains shown)
VH: EVQLVESGGGLVQPGGSLRLSCAASGFNIYYSSMHWVRQAPGKGLEWVAYIYSSSSYTYYADSVKGRFTISADTSKNTAYLQMNSLRAEDTAVYYCARDCCSCVFSQSAGITLACVYVMDYWGQGTLVTVSSAS
VL: DIQMTQSPSSLSASVGDRVTITCRASQSVSSAVAWYQQKPGKAPKLLIYSASSLYSGVPSRFSGSRSGTDFTLTISSLQPEDFATYYCQQWGPHYAPITFGQGTKVEIKR
On to B1, for which the “Inhibition of cdMMP-9 (selectivity)” value in the assay with cdMMP-9 is recorded as “did not inhibit”.

B2: Fab B1B3: anti-BACE-1 antibody clone; VL SEQ ID NO:104, VH SEQ ID NO:61, CDR-H3 SEQ ID NO:64 (antibody, V domains shown)
VH: EVQLVESGGGLVQPGGSLRLSCAASGFNISYYSMHWVRQAPGKGLEWVASISPYYGSTYYADSVKGRFTISADTSKNTAYLQMNSLRAEDTAVYYCARERSSCPVGWRDSRFGADGYGLEYWGQGTLVTVSSAS
VL: DIQMTQSPSSLSASVGDRVTITCRASQSVSSAVAWYQQKPGKAPKLLIYSASSLYSGVPSRFSGSRSGTDFTLTISSLQPEDFATYYCQQSGHYHSLITFGQGTKVEIKR
With B2, the Kd with BACE1 [1] worked out at 31 nM. In addition, in the assay with BACE1 [2], the inhibitory constant (Ki) stood at 210 nM.

B3: Fab 1A5: anti-MMP-14 antibody clone; VL SEQ ID NO:92, VH SEQ ID NO:9, CDR-H3 SEQ ID NO:12 (antibody, V domains shown)
VH: EVQLVESGGGLVQPGGSLRLSCAASGFNLYYYYMHWVRQAPGKGLEWVAYIYPYSGSTYYADSVKGRFTISADTSKNTAYLQMNSLRAEDTAVYYCARLDFLMRDIYYDLGGGALGWLIKYAMDYWGQGTLVTVSSAS
VL: DIQMTQSPSSLSASVGDRVTITCRASQSVSSAVAWYQQKPGKAPKLLIYSASSLYSGVPSRFSGSRSGTDFTLTISSLQPEDFATYYCQQYSGPYPITFGQGTKVEIKR
Turning to B3, in the assay on cdMMP-9, the “Inhibition of cdMMP-9 (selectivity)” value was “did not inhibit”.

B4: Fab B2B5: anti-BACE-1 antibody clone; VL SEQ ID NO:100, VH SEQ ID NO:41, CDR-H3 SEQ ID NO:43 (antibody, V domains shown)
VH: EVQLVESGGGLVQPGGSLRLSCAASGFNIYYSYMHWVRQAPGKGLEWVASIYPYYGSTYYADSVKGRFTISADTSKNTAYLQMNSLRAEDTAVYYCARWHGYPPGYSYYSSFSSSGFDYWGQGTLVTVSSAS
VL: DIQMTQSPSSLSASVGDRVTITCRASQSVSSAVAWYQQKPGKAPKLLIYSASSLYSGVPSRFSGSRSGTDFTPTISSLQPEDFATYYCQQSYFSYPITFGQGTKVEIKR
With B4, the equilibrium dissociation constant (Kd) in the assay with BACE1 [1] stood at 130 nM. Besides, the Ki with BACE1 [2] is 77 nM.

B5: Fab B3B12: anti-BACE-1 antibody clone; VL SEQ ID NO:25, VH SEQ ID NO:29, CDR-H3 SEQ ID NO:32 (antibody, V domains shown)
VH: EVQLVESGGGLVQPGGSLRLSCAASGFNIPYSSMHWVRQAPGKGLEWVASISSYSSSTSYADSVKGRFTISADTSKNTAYLQMNSLRAEDTAVYYCARYICGHRWRDFDMWRARTGVNYAMDYWGQGTLVTVSSAS
VL: DIQMTQSPSSLSASVGDRVTITCRASQSVGTYLNWYQQKPGKAPKLLIYATSNLRSGVPSRFSGSGSGTDFTLTISSLQPEDFATYYCQQSYSIPRFTFGPGTKLEIKR
B5: in the assay with BACE1 [1], the equilibrium dissociation constant (Kd) was determined as 10 nM and the “Binding Affinity KD (associated IgG, in parentheses)” value is given as 7 nM. Besides, in the assay with BACE1 [2], the inhibition constant Ki was determined as 23 nM and the “Inhibition Potency KI (associated IgG, in parentheses)” value is reported as 13 nM.

B6: Fab B2B2: anti-BACE-1 antibody clone; VL SEQ ID NO:44, VH SEQ ID NO:46, CDR-H3 SEQ ID NO:49 (antibody, V domains shown)
VH: EVQLVESGGGLVQPGGSLRLSCAASGFNISSYYMHWVRQAPGKGLEWVASIYSSYGYTYYADSVKGRFTISADTSKNTAYLQMNSLRAEDTAVYYCARYWGYYAWFGSHPWAYGAFDYWGQGTLVTVSSAS
VL: DIQMTQSPSSLSASVGDRVTITCRASQSVSSAVAWYQQKPGKAPKLLIYSASSLYSGVPSRFSGSRSGTDFTLTISSLQPEDFATYYCQQYGYYLITFGQGTKVEIKR
For B6, in the assay with BACE1 [1], the dissociation constant Kd was found to be 52 nM. In the assay with BACE1 [2], the inhibition constant (Ki) was 87 nM.

B7: Fab B2B3: anti-BACE-1 antibody clone; VL SEQ ID NO:102, VH SEQ ID NO:50, CDR-H3 SEQ ID NO:52 (antibody, V domains shown)
VH: EVQLVESGGGLVQPGGSLRLSCAASGFNISYSSIHWVRQAPGKGLEWVAYISSYSSSTYYADSVKGRFTISADTSKNTAYLQMNSLRAEDTAVYYCARSASGIDYWGQGTLVTVSSAS
VL: DIQMTQSPSSLSASVGDRVTITCRASQSVSSAVAWYQQKPGKAPKLLIYSASSLYSGVPSRFSGSRSGTDFTLTISSLQPEDFATYYCQQSGYAPFTFGQGTKVEIKR
Consider B7, for which the dissociation constant Kd with BACE1 [1] was 100 nM. Moreover, the Ki in the assay with BACE1 [2] worked out at 100 nM.

B8: Fab B2B9: anti-BACE-1 antibody clone; VL SEQ ID NO:96, VH SEQ ID NO:53, CDR-H3 SEQ ID NO:56 (antibody, V domains shown)
VH: EVQLVESGGGLVQPGGSLRLSCAASGFNISYSSMHWVRQAPGKGLEWVASIYPSYSYTSYADSVKGRFTISADTSKNTAYLQMNSLRAEDTAVYYCARSSSSYYYGMDYWGQGTLVTVSSAS
VL: DIQMTQSPSSLSASVGDRVTITCRASQSVSSAVAWYQQKPGKAPKLLIYSASSLYSGVPSRFSGSRSGTDFTLTISSLQPEDFATYYCQQSSYSLITFGQGTKVEIKR
On to B8, for which the Kd in the assay with BACE1 [1] came out at 110 nM. The Ki with BACE1 [2] stood at 120 nM.

B9: Fab B1A4: anti-BACE-1 antibody clone; VL SEQ ID NO:33, VH SEQ ID NO:37, CDR-H3 SEQ ID NO:40 (antibody, V domains shown)
VH: EVQLVESGGGLVQPGGSLRLSCAASGFNISYSSIHWVRQAPGKGLEWVAYISPSSSYTSYADSVKGRFTISADTSKNTAYLQMNSLRAEDTAVYYCARHYYVSVGSGIDYWGQGTLVTVSSAS
VL: DIQMTQSPSSLSASVGDRVTITCRASQSVSSAVAWYQQKPGKAPKLLIYSASSLYSGVPSRFSGSRSGTDFTPTISSLQPEDFATYYCQQASASPYALITFGQGTKVEIKR
B9: in the assay with BACE1 [1], the dissociation constant (Kd) worked out at 21 nM and the “Binding Affinity KD (associated IgG, in parentheses)” value is 16 nM. Moreover, in the assay with BACE1 [2], the inhibitory constant (Ki) was 41 nM and the “Inhibition Potency KI (associated IgG, in parentheses)” value was determined as 35 nM.
